Assay results: the nanobody polyreactivity screen of Harvey et al. (2022)

Assay: yeast display, Sf9 membrane polyspecificity reagent, FACS + sequencing; frameworks hold sequencing errors
Procedure, shortened: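 Galactose induction of a Saccharomyces cerevisiae BJ5465 synthetic nanobody display library ran 36–48 hours. The cells were then stained for 1 hour at 4 °C with 10% biotinylated, detergent-solubilized Sf9 membrane reagent, pulled down on streptavidin microbeads and FACS-sorted into low and high (top ~1%) gates on expression and reagent-binding fluorescence. Labels for polyreactivity follow the gate of origin.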

Row | Sequence | polyreactivity (PSR sort gate)
1 | QVQLVESGGGLVQAGGSLRISCAASGLTFRLYVMGWYRQAPGKERELVATISRSGGSTHYADSVKGRFTISRDNAKNTVYLQMNSLKPEDTAVYDCAARLFYFGSDFDYWGQGTQVTVSS | high polyreactivity
2 | HVQLVESGGGLVQAGGSLRLSCAASGSTFAGNAMGWYRQAPGKEWELVAAIDSSTGSTYYADSVKGRFTISRDNAKNTVNLQMNSLKPEDTAVYYCNKTSFLVKLDYWGQGTQVTVSS | low polyreactivity
3 | QVQLVESGGGLFQAGGSLRLSCAATVSNYRYYAMGWYRQAPGKETELVAYITSSGGSTYYADSVKGLFTISRDYAKNTVYLQMNSLKPEDTAVYYCAALSWLYVYPFTEYDYWGQGTQVTVSS | low polyreactivity
4 | QVQLVESGGGLVQAGGSLRLSCAASGRIFFRYAMGWYRQAPGKEREFVAAISGTGGSTYYADSVKGRFTISRDNAKNTVYLQMNSLKPEDTAVYYCAASVVSRPTYYAYYYWGQGTQVTVSS | high polyreactivity
5 | QVQLVESGGGLVQAGGSLRLSCAASGSIFTWYAMGWYRQAPGTERELVAAITRGGSTYADSVKGRFTISRDNAKNTVYLQMNSLKPEDTAVYYCNAVYGVYDFNYWGQGTQVTVSS | low polyreactivity
6 | QVQLVESGGGLVQAGGSLRLSCAASGSTFIFNTMGWYRQAPGKEREVVASITGDGRTNYADSVKGRFTISRDNAKNTVYLQMNSLKPEDTAVYYCAADGYDQYPLWAPPGDYWGQGTQVTVSS | low polyreactivity
7 | QVQLVDSGGGLVQAGGSLRLSCAASGRTILINAMGWDRQAPGKERELVAGITRNGGTTYYADSVKGRFTISRDNAKNTVYLQMNSLKPEDTAVYYCAKRYPSWFNYWGQGTQVTVSS | high polyreactivity
8 | EVQLVESGGGLVQSGGSLRLSSAASGSIFRYYAMGWYRQAPGKERELVAAITGSTGRTYYADSVKGRFTISRDNAKNTVYLQMNSLKPEDTAVYYCAARSRYYEYDYWGQGTQVTVSS | low polyreactivity
9 | QVQLVESGRGLVQAGGSLRLSCAASGFTFYIYAMGWYRQAPGKERELVAAINFGGGGTYYADSVKGRFTISRDNAKNTVYLQMNSLKPEDTAVYYCAADYWYDYYSTEYDYWGQGTQVTVSS | low polyreactivity
10 | QVQLVESGGGLVQAGGSLRLSCAASGAIFVPYAMGWYRQAPGKERELVAAITYSDGSTYYADSVKGRFTISRDNAKNTVYLQMNSLKPEDTAVYYCAAEWIEFPDPVSWYYYTPYYYWGQGTQVTVSS | high polyreactivity
11 | QVQLQESGGGLVQADGSLRLSCAASGSIIGYYYMGWYRQAPGKDRELVATINNCGITNYADSVKGLFTISRDNAKNTVYLQMNSLKPDDTAVYYCAADEYAQRDLGYWGQGTQVTVSN | low polyreactivity
12 | QVQLVESGGGLVQAGGSLRLSCAASGITFYYYTMGWYRQAPGKERELVAGITRGGRTYYADSVKGRFTISRDNAKNTVYLQMNSLKPEDTAVYYCAADYSYIYGFDYWGQGTQVTVSS | low polyreactivity
13 | QVQLVESGGGLVQAGGSLRLSCAASGFIFPGNAMGWYRPAPGKERELVAAISNSGSRTYYADSVKGRLTISRDNAKNTVYLQMNSLIPEDTAVYYCNADVHIRGWPYDYWGQGTQVTVSS | low polyreactivity
14 | QVQLVESGGGLVQAGGSLRLSCAASGRIFGYTMGWYRPAPGKERELVAAISKSGGSTYYADSVKGRFTISRDNAKNTVYLQMNSLKPEDTAVYYCNKPQRILYDYWGQGTQVTVSS | high polyreactivity
15 | QVKIVESVGGLVQSGGSLRLSCAASGRTFHRNARGLYREAPGTEREWVATITTNGGATDYADTVTGRFTSSRDNAKNTFYFHMHSQIPEDTAVYYCSAPFNPRVRPLGSVRMYYWGQGTQVTVSS | low polyreactivity
16 | QVHLVESGGGLVQAGGSLRLSCAASGRIFYRNAMGWYRHAPGKERELVAAISRRGGSTSYADSVQGRFTISRDNAKNTVYLQMTSLKPEDTAVYYCAASRFRTGQEDDYWGQGTQVTVSS | high polyreactivity
17 | QVQLVESGGGLVQAGGSLRLSCAASGRTLIYNAMGWYRQAPGKERELVAAITGGGGRTYYADSVKGRFTISRDNAQNTVYLQMNSLKPEDTAVYYCAAGETFEMNYWGQGTQVTVSS | low polyreactivity
18 | QFQLVESGGGLVQAGVSLRLSCAASGSIIKYYAMGWYRQAPGKERELVATINWNGGSTYYADSVKGRFTISRDNAKNTVYLQMNSLKPEDTAVYYCAAGYRGSYYHSHYEYLGQGTQVTVSS | high polyreactivity
19 | QVPLVESGGGLLQAGGSLRISCAASGSIFTRNAMGWYRPAPGKERELVAAISRRGVSTYYADSVKGRFTISRDNAKNTVYLQMNSLKPEDTAVYYCTARSPMYRTTYDYWGQGTQVTVSS | high polyreactivity
20 | QVQLVESGGGLVQAGGSLRLSCAASGSIFCYALGWNRQAPGKKRELVAAITGRCTSTYADSVKGRFTISLDNAKNTVYLQTNSLKPEDTAVYYCGPVGWFAEFLFSDIYGYYWGQGTQVTVSS | low polyreactivity
21 | QVQLVESGGGLVQAGGILRLSCAASGSTFSPYAMGWYRQAPGKERELVANITISGGSTYYADSVKGRFTISRDNAKNTVYLQMNSLKAEDTAVYYCNADSLIRWLFTVVIFDYWGQGTQVTVSS | low polyreactivity
22 | QVQLVESGGGLVKAGGSLRLSCAASGFTFYLNAMGWSRQAPGKERELVAGISWRGGRTYYADSVKGRFTISRDNAKITVYVQLNSLKPEDTAVYYCAAVTYSFQKTDYYWGQGTQVTVSA | high polyreactivity

Row | Sequence | polyreactivity (PSR sort gate)
23 | QVQLVESGGGLVQAGGSLRLSCAASGRTFGPNAMGWYRQAPGKERELVAAISGSGGSTYYADSVKGRFTISRDNAKNTVYLQMYSLKPEDTAVYYCAARHRQQKLDYWGQGTQVTVSS | high polyreactivity
24 | QVQLVESGGGLVQAGGSLRLSCAASGSTFRRYTMGWYRQAPGKERELVAAISSGGSTYYADSVKGRFTISLDNAKNTVYLQMNSLKPEDTAVYYCAAKNYPLTRYWRYDYSEYYYWGQGTQVTVSS | high polyreactivity
25 | QVQLVESGGGLVQAGGSLRLSCAASGRIFRKYAMGWYRQAPGKERELVAAINWSGGSTYYADSVKGRFTISRDNAKNTVYLQMNSLKPEDTAVYYCAARSPKAERDYWGQGTQVTVSS | high polyreactivity
26 | QVQLVESGGGLVQAGGSLRLSCAASGSTFVNYVMGWYRPAPGKERELVAAISRRGTSTRYADSVKGRFTISRDNAKNTVYLQMNSLKPEDTAVYYCAATRYVGVTGYGYWGQGTQVTVSS | high polyreactivity
27 | QVQLVESGGGLVQAGGSLRLSCAASGITFVRNAMGWYRQAPGKEREFVAAISWSGGSTYYADSVKGRFTISRDNAKNTVYLQMNSLKPEDTAVYYCAAAYPRVTYKYGYYWGQGTQVTVSS | high polyreactivity
28 | QVQLVESGGGLVQAGGSLRLSCAASGSNFHPNGMGRYRQAPRTERELVAAIRRSGGSTYYADSVKGRFTISRDNAKNTVYLQMISLKAEDTAVYYCAAKHYYYSRYVRYDPPPGYYWGQGTQVTVSS | high polyreactivity
29 | QVQLVESGGGLVQAGGSLRLSCAASGIIFYDYAMGWYRQAPGKERELVATITRGGGTKYADSVKGRFTISRDNAKNTVYLQMNSLKQEDTAVYYCAADSHGDYEGDYWGQGTQVTVSS | low polyreactivity
30 | QVQLVESGGGLVQAGGSLRLSCAASGFTFGFYAMGWSRQATGKERELVARISYSGGSTYYADSVKGRFTISRDNAKNTVYLQMNSLKPEDTAVYYCNRGYRRLQEDYWGQGTQVTVSS | high polyreactivity
31 | QVQLVESGGGLVQAGGSLRLSCAASGRTYPRYGMGWYRQAPGKERELVDTIRTGGRTNYADSVKGRFTISRDNAKNTVYLQMNSLKPEDTAVYYCATDSSKHPYSPTLLKFDYWGQGTQVTVSS | low polyreactivity
32 | QVQLEEAGGGLVQAGGSLSLSCAASGSILKVYAMGWSRQAPGQERELVAGNTRAGGSTNDADSVKGRFTISRDYAKNTVLLQMNSLKPEDTPVYYCAGRLKCYRRRDYWGQGTQVSVSS | high polyreactivity
33 | QVQLVESGGGLVQAGGSLRLSCAASGGIFYRYAMGWYRQAPGKERELVAVISRSGSTYYADSVKGRFTISRDNAKNTVYLQMNSQKPEDTAVYYCNKYGQVPGYFSLDYWGQGTQVTVSS | high polyreactivity
34 | QVQLVESGGGLVQAGGSLRLSCAASGSIFLYYAMGWYRQAPGKERELVAVITSGGITNYADSVKGRFTISRDNAKNTFYLQMNSLKPEDTAVYYCNKEYYITYFDLVYSSLDYWGQGTQVTVSS | low polyreactivity
35 | QVQLVESGGGLVQAGGSLRLSCAASGIIFYIYTMGWYRQAPGKERELVAAINRSGSRTYYADSVKGRFTISRDYAKNNVYLQMNSLKPEDTAVYYCAAGTGSRDDYWGQGTQVTVST | high polyreactivity
36 | QVQLVESGGGLVQAGGSLRLSCAASGNIFFSNAMGWYRQAPGKERELVASISQSGGSTYYADSVKGRFTISRDNAKNTVYLQMNSLKPEDTAVYYCAATQVRRGPAWGRDYWGQGTQVTVSS | low polyreactivity
37 | QVQLVETGGGLVQAGGSLRLSCAASGRTFWGHAMGWYRQAPRKERELVASISSRGSSTYYADSVKGRFTISRDNAKNTVYLQMNSLKPEDTAVYYCAARTHYFPWPWYVWDYDSWGQGTQVTVSS | low polyreactivity
38 | QVQLVESGGGLVQAGGSLRLSCAASGSIFLFYAMGWYRQAPGKERELVAAISYSGGRTYYADSVKGRFTISRDNAKNTVYLQMNSLNPEDTAVYYCAAVGYSSYPYRRFDYWGQGTQVTVSS | high polyreactivity
39 | QVQLVESGGGLVQAGGSLRLSCAASGSIFDVNTMGWYRQAPGKERELVAAITNGDRTNYADSVKGRFTISRDNAKNTVYLQMNSLKPEDTAVYYCNTDQGTTSDYGYWGQGTQVTVSS | low polyreactivity
40 | QVQLVESGGGLVQAGGSLRLSCAASGFIFSAYAMGWYRQAPGKERELVAAISYSGGTTYYADSVKGRFTISRDNAKNTVYLQMNSLKPEDTAVYYCAAGVGYWGQGTQVTVSS | high polyreactivity
41 | QVQLVESGGGLVQAGGSLRLSCAASGRTFVSNALGWYRQAPGKERELVAAISSSGGSTYYADSVKGRFTISRDNAKNTVYLQMNSLKPEDPAVYYGATYPLYSKYRYDHWGQGTQVTVSS | high polyreactivity
42 | QVQLVESGGGLVQAGGSLRLSCAASGSIFWYNSMGWYRQAPGKERELVAAISYRGGRTYYADSVKGRFTISRDNAKNTVYLQMNSLKPEDTAVYYCNAPRYLGGGQDALGDYWGQGTQVTVSS | high polyreactivity
43 | QGQLVESGGGFVQAGGSLRLSCDASGNIFSANAMGWYRQAPWKEREFVAAISSTGGSTYYADSVKGRFTISRDNEMNTLYLQMNCLKPEDTAVYYCAAYIRRYFHYDYWRQGTQVTVSS | high polyreactivity
